Four substances from publication PMC4052767 can be followed below.

Usually Kd stands for a measure of binding affinity in units of concentration. A high value points to weaker binding.

Chain of Hat1p/Hat2p/H4_(1-48) complex (yeast (Saccharomyces cerevisiae) | yeast) (Q12341 1-320, chain 1 of 3): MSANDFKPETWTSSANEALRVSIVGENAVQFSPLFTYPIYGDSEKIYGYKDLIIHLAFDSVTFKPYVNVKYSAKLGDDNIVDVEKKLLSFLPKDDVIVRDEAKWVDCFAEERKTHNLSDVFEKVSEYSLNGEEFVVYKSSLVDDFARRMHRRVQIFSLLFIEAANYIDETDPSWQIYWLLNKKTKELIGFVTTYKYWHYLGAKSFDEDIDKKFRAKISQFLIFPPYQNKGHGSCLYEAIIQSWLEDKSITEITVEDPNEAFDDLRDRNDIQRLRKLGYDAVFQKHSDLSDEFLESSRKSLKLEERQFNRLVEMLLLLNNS
Chain of Hat1p/Hat2p/H4_(1-48) complex (yeast (Saccharomyces cerevisiae) | yeast) (P39984 whole entry, chain 2 of 3, further chain, the tested form may be a part): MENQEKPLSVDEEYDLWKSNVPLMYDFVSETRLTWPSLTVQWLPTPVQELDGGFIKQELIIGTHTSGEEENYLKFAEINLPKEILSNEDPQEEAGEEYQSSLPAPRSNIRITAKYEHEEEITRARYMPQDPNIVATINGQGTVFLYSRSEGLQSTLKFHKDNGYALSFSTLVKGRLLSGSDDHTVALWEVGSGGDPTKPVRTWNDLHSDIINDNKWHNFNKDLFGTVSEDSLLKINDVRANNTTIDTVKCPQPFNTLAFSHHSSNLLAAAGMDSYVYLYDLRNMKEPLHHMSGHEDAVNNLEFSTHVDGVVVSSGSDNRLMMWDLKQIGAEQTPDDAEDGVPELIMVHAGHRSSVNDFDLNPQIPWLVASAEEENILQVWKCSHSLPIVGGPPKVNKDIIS
Chain of Hat1p/Hat2p/H4_(1-48) complex (yeast (Saccharomyces cerevisiae) | yeast) (P02309 2-49, chain 3 of 3, further chain): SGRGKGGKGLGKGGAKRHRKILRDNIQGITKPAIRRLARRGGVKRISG

The assay concerns the target Hat1p/Hat2p/H4_(1-48) complex (yeast (Saccharomyces cerevisiae) | yeast) (UniProt Q12341). Description: ITC. (ITC needs no label: the signal is the heat of the interaction.)
“H3 peptide (residues 1-15), unmodified (from UniProt P61830 2-16)” displayed a Kd of 0.34 µM.
Take H3K4me1 peptide: the Kd was 2.48 µM.
With H3K4me2 peptide the figure was 4.78 µM; with H3K4me3 peptide, 11.6 µM.
